# Assay results: patent publication US20230340132A1, “ANTI-ADENOSINE RECEPTOR (A2aR) ANTIBODIES” (NA Biotech Corp, priority 2020, published 2023)
# Values joined by “and” are separate entries in the source; they are usually repeats but may differ in a detail not shown here. Identical values can stand only once. “Also recorded” adds a separate entry of the source.
# T1: human adenosine receptor A2B (human, UniProt P29275 1-332)
# T1 construct: whole, on cells; the tag is not described; also called A2bR; human A2bR
# T1 sequence (looked up): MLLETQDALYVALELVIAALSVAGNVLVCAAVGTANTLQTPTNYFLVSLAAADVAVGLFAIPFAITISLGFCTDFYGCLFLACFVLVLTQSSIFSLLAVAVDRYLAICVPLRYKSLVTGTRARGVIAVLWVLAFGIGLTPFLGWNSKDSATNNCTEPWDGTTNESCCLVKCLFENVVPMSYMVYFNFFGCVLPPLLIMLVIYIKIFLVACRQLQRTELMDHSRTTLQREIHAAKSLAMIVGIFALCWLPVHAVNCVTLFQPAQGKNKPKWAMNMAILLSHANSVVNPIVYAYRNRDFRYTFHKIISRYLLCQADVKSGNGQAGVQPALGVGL
# T2: human adenosine receptor A3 (Homo sapiens, UniProt P0DMS8)
# T2 construct: FLAG
# T2 sequence (P0DMS8 1-318): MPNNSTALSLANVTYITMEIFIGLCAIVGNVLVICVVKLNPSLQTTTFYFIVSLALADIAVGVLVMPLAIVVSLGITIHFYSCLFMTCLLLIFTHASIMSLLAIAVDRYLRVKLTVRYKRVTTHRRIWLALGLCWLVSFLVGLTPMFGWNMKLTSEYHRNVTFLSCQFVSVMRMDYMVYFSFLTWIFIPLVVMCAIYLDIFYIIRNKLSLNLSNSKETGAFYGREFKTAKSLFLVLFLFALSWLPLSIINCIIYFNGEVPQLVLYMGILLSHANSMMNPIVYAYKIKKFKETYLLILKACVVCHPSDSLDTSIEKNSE
# T3: human adenosine receptor A3 (human, UniProt P0DMS8 1-318)
# T3 construct: whole, on cells; the tag is not described; also called A3R; human A3R
# T3 sequence (looked up): T2 sequence (P0DMS8 1-318)
# B1: anti-human A2aR monoclonal antibody 1B5-3D7 (antibody, V domains shown)
# VH: QVQLQQPGTELVKPGAPVKLSCKTSGFTFTRFWMNWVRQRPGRGLEWIGRIDPYDSETQYNHKFWDRATLTVDKSSSTVYIQLSSLTSEDSAVYYCGRSLYGKGDYWGQGTTLTVSS
# VL: DVLMTQSPLSLPVSLGDQASISCRSSQSIVHSNGNTYLEWYLQRPGQSPKLLIYKVSNRFSGVPDRFSGSGSGTYFTLRISRVEAEDLGIYYCFQGSHVPLTFGSGTTLELK
# notes: Tested as whole mouse IgG2a / kappa, purified from hybridoma supernatant or made recombinantly in Expi293 cells; also called 1B-3D7
# B2: 3F6-9G5: anti-human A2aR monoclonal antibody from mouse hybridoma clone; HCVR SEQ ID NO: 36, LCVR SEQ ID NO: 42 (antibody, V domains shown)
# VH: QVQLQQPGTELVKPGAPVRLSCKASGFAFTSYWMNWVRQRPGRGLEWIGRIDPSDSEAHYHHKFWGKATLTVDKSSSTVYIQLNGLTSEDSAVYYCLRSLYGKGDYWGHGTTLTVSS
# VL: DVLMTQTPLSLSVRLGDQASISCRSSQSLVHRNGNTYLEWYLQRPGQSPKLLIYKVSNRFSGVPDRFSGSGSGTDFTLKISRVEAEDLGVYYCYQGSHVPLTFGSGTKLEIK
# How the values were obtained:
# [1] = target: T1, human adenosine receptor A2B; experiment: flow cytometry on HEK293T cells stably expressing human A2bR
# [2] = target: T2, human adenosine receptor A3; experiment: flow cytometry-based cell-binding assay, HEK293T-A3; settings: duplicate
# Protocol: To test the specificity of the antigen binding molecules of the invention, e.g., anti-A2aR antibodies or antigen binding fragments thereof to human A2aR and not towards any of the other 3 adenosine receptor family members, a flow cytometry-based cell-binding assay was performed by Multispan Inc (Hayward, CA). HEK293T cells stably expressing various adenosine receptors, i.e., human A1R, A2bR, and A3R, and mouse A2R, generated by Multispan Inc and HEK293T parental cell lines were used in the assay. Briefly, adenosine receptor-overexpressing cell lines and HEK293T parental cell lines were incubated with 2, 10, and 50 nM of anti-human A2aR monoclonal antibodies (clones 1B5-3D7 and 3F6-9G5) and 10 and 50 nM of mouse IgG2a Isotype control at 4° C. in the dark for 60 minutes. Anti-FLAG antibody (Abcam, ab72469, 2 μg/mL) was used as positive control for cell lines over-expressing various adenosine receptors, respectively. After 3 washes with FACS buffer (PBS plus 0.1% BSA and 0.2% sodium azide), cells were stained with an anti-mouse-IgG-PE (Invitrogen, cat. P852) detection antibody for 45 minutes at 4° C. The cells were then washed 3 times with FACS buffer and analyzed on FACSort (Becton Dickinson). Data was analyzed using CellQuest Pro (Becton Dickinson).
# human A2aR = target: T4, human A2aR (Homo sapiens, UniProt P29274); experiment: FACS screening of hybridoma clones on human A2aR-expressing Expi293 cells; assay type: binding; settings: antibodies from hybridoma clones
# T4 construct: expressed in transfected cells; host or cells: Expi293
# Protocol: Serum titration was performed using Fluorescence-Activated Cell Sorting (FACS) pursuant to standard procedures. Human A2aR-expressing Expi293 cells were first added to 96-well plate (1×10^5 cells per well), 50 μl of serial diluted serum (1:50, 1;150, 1:450, 1:[…], 1:12150) from each individual mouse was incubated with cells for 30 min. on ice. After washing with FACS buffer (2% Fetal bovine serum, 2 mM EDTA in PBS), Alex Fluor 647-conjugated anti mouse IgG was added and incubated for 20 min on ice. Cells were resuspending with 100 μl FACS buffer after two times wash and ready for FACS analysis (BD LSR II Flow Cytometer, HTS). […] (MFI: mean fluorescence intensity).
# Primary screening of the hybridoma supernatants in the 96-well plates was performed using the same FACS procedure as described for serum titration except following changes: 1) Human A2aR-expressing Expi293 cells (expressing GFP) were mixed at 1:1 ratio with parental Expi293 (no A2aR expression) and added to 96-well plates (2×10^5 cells per well), 2) 50 μl hybridoma supernatant transferred from each well of 96-well plates was incubated with cells for 30 min. on ice.
# Sub-cloning was performed by limiting dilution method. In short, the positive wells identified by FACS were seeded into 96-well plate at an average density of 1 cell/well. The […] was placed in incubator for 7-10 days to allow the growth of the cells. The growth of cells was monitored periodically. At about day 4, the wells on the plate were observed under phase contrast microscopy and the wells which appeared to have single colony growing (i.e., only one clumping of hybridomas) were recorded. The cells from the single colony wells were screed by FACS using the same procedure as described for primary screening of hybridoma when the confluence of the cell reached about 50%.
# [3] = target: human adenosine A2A receptor (A2aR) (human, UniProt P29274 1-412); experiment: cell-based or functional assay
# [4] = target: T3, human adenosine receptor A3; experiment: flow cytometry on HEK293T cells stably expressing human A3R
# [5] = target: T5, mouse adenosine receptor A2A (mouse, UniProt Q60613 1-410); experiment: flow cytometry on HEK293T cells stably expressing mouse A2aR
# T5 construct: whole, on cells; the tag is not described; also called mouse A2aR; mouse A2R
# [6] = target: T6, human A2aR on human T cells (PBMC) (Homo sapiens, UniProt P29274); experiment: primary cell binding by flow cytometry, human PBMC; settings: rabbit Fc format, 2 μg/ml
# T6 construct: host or cells: human PBMC (T cells)
# Protocol: (§1) Human and cynomolgus PBMCs were purchased from Cytologics LLC (San Diego, CA) and iQ Biosciences (Berkeley, CA), respectively. Primary cell binding was determined using anti-human A2aR clone 3F6-9G5 at rabbit Fc format. In brief, 10^6 human and/or cynomolgus PBMCs in 100 μl FACS buffer were incubated with 3F6-9G5 (2 μg/ml) at 4° C. for 60 minutes. Cynomolgus cross-reactive anti-human CD3 (clone SP34, BD), anti-human CD8 (clone RPA-T8, Biolegend) and Zombie Green fixable Viability dye (Biolegend, Cat. 423111) were used according to manufacturer's instruction to define live immune cell subsets. After 3 washes with FACS buffer, cells were stained with PE-conjugated donkey anti-rabbit Fc detection antibody (1:200, Biolegend, Cat. 406421) for 30 minutes at 4° C. After 3 washes with FACS buffer, cells were analyzed on LSRII (Becton Dickinson). Data was analyzed using FlowJo (Becton Dickinson).
# [7] = tested on: cynomolgus A2aR on cynomolgus T cells (PBMC); experiment: primary cell binding by flow cytometry, cynomolgus PBMC; settings: rabbit Fc format, 2 μg/ml
# Protocol: as §1
# T6 sequence (P29274 whole entry): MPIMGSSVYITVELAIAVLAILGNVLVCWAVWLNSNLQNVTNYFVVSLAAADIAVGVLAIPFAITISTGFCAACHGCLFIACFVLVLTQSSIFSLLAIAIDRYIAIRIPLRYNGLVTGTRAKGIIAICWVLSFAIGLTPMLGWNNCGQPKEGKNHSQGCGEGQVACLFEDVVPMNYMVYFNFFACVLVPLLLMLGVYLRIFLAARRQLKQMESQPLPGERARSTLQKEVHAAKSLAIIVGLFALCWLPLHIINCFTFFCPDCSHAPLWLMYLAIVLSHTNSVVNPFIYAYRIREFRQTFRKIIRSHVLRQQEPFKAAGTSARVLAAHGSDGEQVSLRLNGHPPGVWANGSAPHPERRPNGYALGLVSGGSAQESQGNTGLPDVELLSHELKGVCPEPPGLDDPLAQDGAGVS
# T4 sequence (P29274 whole entry): as above
# cynomolgus A2aR on cynomolgus T cells (PBMC), sequence (as listed by the source): as the sequence (P29274 whole entry) above, with M1V, S263N, A371T, G379S, D407G counted along it
# human adenosine A2A receptor (A2aR), sequence (P29274 whole entry): as the sequence (P29274 whole entry) above
# T5 sequence (Q60613 whole entry): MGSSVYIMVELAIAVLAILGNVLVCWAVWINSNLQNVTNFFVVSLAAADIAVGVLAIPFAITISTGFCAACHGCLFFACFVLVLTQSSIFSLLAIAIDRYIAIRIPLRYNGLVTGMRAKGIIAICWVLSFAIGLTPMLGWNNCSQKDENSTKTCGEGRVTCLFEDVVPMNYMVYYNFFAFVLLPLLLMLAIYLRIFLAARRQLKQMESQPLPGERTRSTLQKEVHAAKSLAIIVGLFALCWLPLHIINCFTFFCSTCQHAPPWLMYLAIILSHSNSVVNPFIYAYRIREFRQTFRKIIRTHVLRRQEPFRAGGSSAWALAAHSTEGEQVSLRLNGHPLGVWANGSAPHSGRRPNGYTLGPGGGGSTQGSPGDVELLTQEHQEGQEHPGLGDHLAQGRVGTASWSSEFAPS
Molecule,binding result [1],Geo Mean ([2]; 2 nM),Geo Mean ([2]; 10 nM),Geo Mean ([2]; 50 nM),binding to human A2aR-expressing cells (FIG. 2) (human A2aR),"IC50 (M), cAMP-Glo assay of NECA-induced cAMP in HEK293 cells stably expressing human A2aR [3] [M]",binding result [4],binding result [5],binding to human T cells (CD4+ and CD8+) of PBMC (FIG. 6) [6],binding to cynomolgus T cells (CD4+ and CD8+) of PBMC (FIG. 6) [7]
B1,"no binding (tested: 2, 10 and 50 nM tested)",2.11 and 2.09,2.23 and 2.32,2.45 and 2.3,specific binding,4.48e-09,"no binding (tested: 2, 10 and 50 nM tested)","no binding (tested: 2, 10 and 50 nM tested)",–,–
B2,–,2.07 and 1.96,2.49 and 2.33,2.66 and 2.25,specific binding,–,–,–,bound to a small subset of human T cells; also recorded: binds,cross-reacted with cynomolgus T cells; also recorded: binds
